The values that follow come from patent publication US20100184663A1 (UNIVERSITY OF UTAH RESEARCH FOUNDATION, published 2010).

Bridge positions count the residues as written; N and C are the ends. Square brackets hold non-standard residues; d marks the D form. Ends that are not written are not given here.

One assay deals with HIV-1 gp41 (JRFL strain) (HIV-1 JRFL). Put plainly: cell-based or functional assay.
A further assay addresses HIV-1 gp41 (HXB2 strain) (HIV-1 HXB2, UniProt P04578 512-856). As to the kind of experiment: cell-based or functional assay.

B1: PIE7-GK-PEG4 (peptide)
peptide: Ac-G[dA][dC][dD][dY][dP][dE][dW][dQ][dW][dL][dC][dA][dA]G[dK]-NH2
modifications: disulfide 3-12 (inferred); also: PEG4 attached at the C-terminus, order with amide not given here
With B1, the “IC50 (JRFL), pseudovirion entry” value in the assay with HIV-1 gp41 (JRFL strain) amounted to 13100 nM. Further, in the assay with HIV-1 gp41 (HXB2 strain), the “IC50 (HXB2), pseudovirion entry” value stood at 351 nM.

B2: PEG5-(PIE13)2 (peptide)
peptide: [dH][dP][dC][dD][dY][dP][dE][dW][dQ][dW][dL][dC][dK][dL]G[dK]
modifications: disulfide 3-12 (inferred); also: dimer crosslinked via internal Lys with PEG5 linker
On to B2, for which the “IC50 (JRFL), pseudovirion entry” value in the assay with HIV-1 gp41 (JRFL strain) amounted to 15.1 nM.

Turning to [dH][dP][dC][dD][dY][dP][dE][dW][dQ][dW][dL][dC][dE][dL]G[dK] (disulfide 3-12 (inferred); also: dimer joined C- to C-terminus by PEG5 spacer) [C5C(PIE12)2], in the assay with HIV-1 gp41 (JRFL strain), the “IC50 (JRFL), pseudovirion entry” value was 14.2 nM.

For Ac-G[dA][dC][dD][dY][dP][dE][dW][dQ][dW][dL][dC][dA][dA]G[dK][dK]-NH2 (disulfide 3-12 (inferred)) [PIE7-GKK], the “IC50 (JRFL), pseudovirion entry” value with HIV-1 gp41 (JRFL strain) worked out at 19100 nM. Also, the “IC50 (HXB2), pseudovirion entry” value in the assay with HIV-1 gp41 (HXB2 strain) was 382 nM.

As for [dH][dP][dC][dD][dY][dP][dE][dW][dQ][dW][dL][dC][dE][dL]G[dK] (disulfide 3-12 (inferred); also: trimer, C-termini joined by PEG5 spacers) [C5C(PIE12)3], in the assay with HIV-1 gp41 (JRFL strain), the “IC50 (JRFL), pseudovirion entry” value came to 2.77 nM.

As to Ac-[dH][dP][dC][dD][dY][dP][dE][dW][dQ][dW][dL][dC][dR][dL]G[dK]-NH2 (disulfide 3-12 (inferred)) [PIE14], the “IC50 (JRFL), pseudovirion entry” value with HIV-1 gp41 (JRFL strain) stood at 1050 nM. Moreover, in the assay with HIV-1 gp41 (HXB2 strain), the “IC50 (HXB2), pseudovirion entry” value came out at 33.1 nM.

Ac-G[dA][dC][dD][dY][dP][dE][dW][dQ][dW][dL][dC][dA][dA]G[dK]-NH2 (disulfide 3-12 (inferred)) [PIE7-GK]: in the assay with HIV-1 gp41 (JRFL strain), the “IC50 (JRFL), pseudovirion entry” value was 15800 nM. The “IC50 (HXB2), pseudovirion entry” value with HIV-1 gp41 (HXB2 strain) is 389 nM.

Regarding Ac-[dH][dP][dC][dD][dY][dP][dE][dW][dQ][dW][dL][dC][dK][dL]G[dK]-NH2 (disulfide 3-12 (inferred)) [PIE13], the “IC50 (JRFL), pseudovirion entry” value with HIV-1 gp41 (JRFL strain) came to 1470 nM. Also, in the assay with HIV-1 gp41 (HXB2 strain), the “IC50 (HXB2), pseudovirion entry” value came out at 41.3 nM.

Take [dK]G[dA][dC][dD][dY][dP][dE][dW][dQ][dW][dL][dC][dA][dA] (disulfide 4-13 (inferred); also: dimer joined N- to C-terminus by PEG9 spacer) [N9C(PIE7)2]: the “IC50 (JRFL), pseudovirion entry” value in the assay with HIV-1 gp41 (JRFL strain) was 313 nM. The “IC50 (HXB2), pseudovirion entry” value in the assay with HIV-1 gp41 (HXB2 strain) stood at 0.329 nM.

For the molecule Ac-[dH][dP][dC][dD][dY][dP][dE][dW][dQ][dW][dL][dC][dE][dL]G[dK]-NH2 (disulfide 3-12 (inferred)) [PIE12], the “IC50 (JRFL), pseudovirion entry” value in the assay with HIV-1 gp41 (JRFL strain) was 578 nM.

For Ac-[dH][dA][dC][dD][dY][dP][dE][dW][dQ][dW][dL][dC][dE][dL]G[dK]-NH2 (disulfide 3-12 (inferred)) [PIE15], the “IC50 (JRFL), pseudovirion entry” value with HIV-1 gp41 (JRFL strain) was found to be 1450 nM. Moreover, in the assay with HIV-1 gp41 (HXB2 strain), the “IC50 (HXB2), pseudovirion entry” value was 66.7 nM.

For the molecule Ac-[dK]G[dA][dC][dD][dY][dP][dE][dW][dQ][dW][dL][dC][dA][dA]G[dK]-NH2 (disulfide 4-13 (inferred)) [K-PIE7-GK], in the assay with HIV-1 gp41 (JRFL strain), the “IC50 (JRFL), pseudovirion entry” value came out at 14800 nM.
